Data published in patent US20140087995A1 (published 2014).
Numbered stars: 1 amine (or outer) side, 2 acyl side, 3 side chain; on linkers, the order of the positions; unused ones are H or OH. Bridge positions count the residues as written; N and C are the ends. Side chains are listed from the residue outwards. Ends that are not written are not given here. * marks the point of attachment. C20 diacid = O=C(O)CCCCCCCCCCCCCCCCCCC(=O)*; γGlu = O=C(O)[C@H](CCC(=O)[*:2])N[*:1]; AEEA = NCCOCCOCC(=O)O

T1: human calcitonin receptor (human, UniProt P30988 25-474)
T1 construct: whole, on cells; also called hCTR; hCT
T1 sequence (looked up): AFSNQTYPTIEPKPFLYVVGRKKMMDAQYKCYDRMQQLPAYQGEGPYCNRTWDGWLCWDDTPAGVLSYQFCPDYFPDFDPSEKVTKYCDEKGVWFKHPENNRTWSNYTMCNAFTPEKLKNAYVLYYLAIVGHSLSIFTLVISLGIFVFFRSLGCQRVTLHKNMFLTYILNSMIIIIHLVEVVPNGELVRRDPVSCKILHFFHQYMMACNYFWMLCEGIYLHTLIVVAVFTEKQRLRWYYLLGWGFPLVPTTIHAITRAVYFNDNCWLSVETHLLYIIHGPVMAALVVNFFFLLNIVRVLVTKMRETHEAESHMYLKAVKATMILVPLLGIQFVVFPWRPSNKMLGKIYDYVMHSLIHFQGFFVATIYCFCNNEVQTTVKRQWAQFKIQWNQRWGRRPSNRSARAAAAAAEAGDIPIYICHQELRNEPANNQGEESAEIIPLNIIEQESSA


Tests used:
[1] = target: T1, human calcitonin receptor; assay: ratio of IC50 at human calcitonin receptor to IC50 at human amylin receptor (SPA competition assays)
How it was run: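 IC₅₀ values were derived by one-site competition analysis of SPA counts. Cell membranes (35 ng/μL) with SPA beads were incubated with test compounds for 120 min at 25° C in Hepes buffer, pH 7.4, containing CaCl2, MgCl₂, OA and Tween20.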

[2] = target: T1, human calcitonin receptor; assay: SPA radioligand competition (125I-calcitonin), membranes of BHK cells with human calcitonin receptor
How it was run: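 BHK hCTR membranes 35 ng/μL + SPA beads 0.05 mg/well; buffer 50 mM Hepes pH 7.4, 1 mM CaCl2, 5 mM MgCl₂, 0.1% OA, 0.02% Tween20. 120 min, 25° C., shaking. Scintillation count; IC50 by one-site binding competition.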

Binder | Ratio hCT/hAmylin binding [1] | IC50 [2]
K([AEEA-γGlu-C20 diacid])CNTATCATQRLAKFLRHSSPNFGAIPSSTPVGSNTY-NH2 (disulfide 2-7; N-terminus assumed; SMILES CC[C@H](C)[C@H](NC(=O)[C@H](C)NC(=O)CNC(=O)[C@H](Cc1ccccc1)NC(=O)[C@H](CC(N)=O)NC(=O)[C@@H]1CCCN1C(=O)[C@H](CO)NC(=O)[C@H](CO)NC(=O)[C@H](Cc1c[nH]cn1)NC(=O)[C@H](CCCNC(=N)N)NC(=O)[C@H](CC(C)C)NC(=O)[C@H](Cc1ccccc1)NC(=O)[C@H](CCCCN)NC(=O)[C@H](C)NC(=O)[C@H](CC(C)C)NC(=O)[C@H](CCCNC(=N)N)NC(=O)[C@H](CCC(N)=O)NC(=O)[C@@H](NC(=O)[C@H](C)NC(=O)[C@@H]1CSSC[C@H](NC(=O)[C@@H](N)CCCCNC(=O)COCCOCCNC(=O)CC[C@H](NC(=O)CCCCCCCCCCCCCCCCCCC(=O)O)C(=O)O)C(=O)N[C@@H](CC(N)=O)C(=O)N[C@@H]([C@@H](C)O)C(=O)N[C@@H](C)C(=O)N[C@@H]([C@@H](C)O)C(=O)N1)[C@@H](C)O)C(=O)N1CCC[C@H]1C(=O)N[C@@H](CO)C(=O)N[C@@H](CO)C(=O)N[C@H](C(=O)N1CCC[C@H]1C(=O)N[C@H](C(=O)NCC(=O)N[C@@H](CO)C(=O)N[C@@H](CC(N)=O)C(=O)N[C@H](C(=O)N[C@@H](Cc1ccc(O)cc1)C(N)=O)[C@@H](C)O)C(C)C)[C@@H](C)O, also called compound 74) | 101 | 0.0799 µM
K([AEEA-γGlu-C20 diacid])CNTATCATQRLATFLRHSSPNFGAIPSSTPVGSNTY-NH2 (disulfide 2-7; N-terminus assumed; SMILES CC[C@H](C)[C@H](NC(=O)[C@H](C)NC(=O)CNC(=O)[C@H](Cc1ccccc1)NC(=O)[C@H](CC(N)=O)NC(=O)[C@@H]1CCCN1C(=O)[C@H](CO)NC(=O)[C@H](CO)NC(=O)[C@H](Cc1c[nH]cn1)NC(=O)[C@H](CCCNC(=N)N)NC(=O)[C@H](CC(C)C)NC(=O)[C@H](Cc1ccccc1)NC(=O)[C@@H](NC(=O)[C@H](C)NC(=O)[C@H](CC(C)C)NC(=O)[C@H](CCCNC(=N)N)NC(=O)[C@H](CCC(N)=O)NC(=O)[C@@H](NC(=O)[C@H](C)NC(=O)[C@@H]1CSSC[C@H](NC(=O)[C@@H](N)CCCCNC(=O)COCCOCCNC(=O)CC[C@H](NC(=O)CCCCCCCCCCCCCCCCCCC(=O)O)C(=O)O)C(=O)N[C@@H](CC(N)=O)C(=O)N[C@@H]([C@@H](C)O)C(=O)N[C@@H](C)C(=O)N[C@@H]([C@@H](C)O)C(=O)N1)[C@@H](C)O)[C@@H](C)O)C(=O)N1CCC[C@H]1C(=O)N[C@@H](CO)C(=O)N[C@@H](CO)C(=O)N[C@H](C(=O)N1CCC[C@H]1C(=O)N[C@H](C(=O)NCC(=O)N[C@@H](CO)C(=O)N[C@@H](CC(N)=O)C(=O)N[C@H](C(=O)N[C@@H](Cc1ccc(O)cc1)C(N)=O)[C@@H](C)O)C(C)C)[C@@H](C)O, also called compound 75) | 91.4 | 0.0609 µM
K([γGlu-C20 diacid])CNTATCATQRLAAFLRHSSPNFGAIPSSTNVGHNTY-NH2 (disulfide 2-7; N-terminus assumed; SMILES CC[C@H](C)[C@H](NC(=O)[C@H](C)NC(=O)CNC(=O)[C@H](Cc1ccccc1)NC(=O)[C@H](CC(N)=O)NC(=O)[C@@H]1CCCN1C(=O)[C@H](CO)NC(=O)[C@H](CO)NC(=O)[C@H](Cc1c[nH]cn1)NC(=O)[C@H](CCCNC(=N)N)NC(=O)[C@H](CC(C)C)NC(=O)[C@H](Cc1ccccc1)NC(=O)[C@H](C)NC(=O)[C@H](C)NC(=O)[C@H](CC(C)C)NC(=O)[C@H](CCCNC(=N)N)NC(=O)[C@H](CCC(N)=O)NC(=O)[C@@H](NC(=O)[C@H](C)NC(=O)[C@@H]1CSSC[C@H](NC(=O)[C@@H](N)CCCCNC(=O)CC[C@H](NC(=O)CCCCCCCCCCCCCCCCCCC(=O)O)C(=O)O)C(=O)N[C@@H](CC(N)=O)C(=O)N[C@@H]([C@@H](C)O)C(=O)N[C@@H](C)C(=O)N[C@@H]([C@@H](C)O)C(=O)N1)[C@@H](C)O)C(=O)N1CCC[C@H]1C(=O)N[C@@H](CO)C(=O)N[C@@H](CO)C(=O)N[C@H](C(=O)N[C@@H](CC(N)=O)C(=O)N[C@H](C(=O)NCC(=O)N[C@@H](Cc1c[nH]cn1)C(=O)N[C@@H](CC(N)=O)C(=O)N[C@H](C(=O)N[C@@H](Cc1ccc(O)cc1)C(N)=O)[C@@H](C)O)C(C)C)[C@@H](C)O, also called compound 93) | 101 | 0.0178 µM
K([γGlu-C20 diacid])CNTATCATQRLARFLRHSSPNFGAIPSSTNVGSNTY-NH2 (disulfide 2-7; N-terminus assumed; SMILES CC[C@H](C)[C@H](NC(=O)[C@H](C)NC(=O)CNC(=O)[C@H](Cc1ccccc1)NC(=O)[C@H](CC(N)=O)NC(=O)[C@@H]1CCCN1C(=O)[C@H](CO)NC(=O)[C@H](CO)NC(=O)[C@H](Cc1c[nH]cn1)NC(=O)[C@H](CCCNC(=N)N)NC(=O)[C@H](CC(C)C)NC(=O)[C@H](Cc1ccccc1)NC(=O)[C@H](CCCNC(=N)N)NC(=O)[C@H](C)NC(=O)[C@H](CC(C)C)NC(=O)[C@H](CCCNC(=N)N)NC(=O)[C@H](CCC(N)=O)NC(=O)[C@@H](NC(=O)[C@H](C)NC(=O)[C@@H]1CSSC[C@H](NC(=O)[C@@H](N)CCCCNC(=O)CC[C@H](NC(=O)CCCCCCCCCCCCCCCCCCC(=O)O)C(=O)O)C(=O)N[C@@H](CC(N)=O)C(=O)N[C@@H]([C@@H](C)O)C(=O)N[C@@H](C)C(=O)N[C@@H]([C@@H](C)O)C(=O)N1)[C@@H](C)O)C(=O)N1CCC[C@H]1C(=O)N[C@@H](CO)C(=O)N[C@@H](CO)C(=O)N[C@H](C(=O)N[C@@H](CC(N)=O)C(=O)N[C@H](C(=O)NCC(=O)N[C@@H](CO)C(=O)N[C@@H](CC(N)=O)C(=O)N[C@H](C(=O)N[C@@H](Cc1ccc(O)cc1)C(N)=O)[C@@H](C)O)C(C)C)[C@@H](C)O, also called compound 83) [N^ε1-[(4S)-4-carboxy-4-(19-carboxynonadecanoylamino)butanoyl]-[Arg14,Arg17,Pro21,Pro27]-h-amylin] | 146 | 0.137 µM
K([AEEA-γGlu-C20 diacid])CNTATCATQRLASFLRHSSPNFGAIPSSTPVGSNTY-NH2 (disulfide 2-7; N-terminus assumed; SMILES CC[C@H](C)[C@H](NC(=O)[C@H](C)NC(=O)CNC(=O)[C@H](Cc1ccccc1)NC(=O)[C@H](CC(N)=O)NC(=O)[C@@H]1CCCN1C(=O)[C@H](CO)NC(=O)[C@H](CO)NC(=O)[C@H](Cc1c[nH]cn1)NC(=O)[C@H](CCCNC(=N)N)NC(=O)[C@H](CC(C)C)NC(=O)[C@H](Cc1ccccc1)NC(=O)[C@H](CO)NC(=O)[C@H](C)NC(=O)[C@H](CC(C)C)NC(=O)[C@H](CCCNC(=N)N)NC(=O)[C@H](CCC(N)=O)NC(=O)[C@@H](NC(=O)[C@H](C)NC(=O)[C@@H]1CSSC[C@H](NC(=O)[C@@H](N)CCCCNC(=O)COCCOCCNC(=O)CC[C@H](NC(=O)CCCCCCCCCCCCCCCCCCC(=O)O)C(=O)O)C(=O)N[C@@H](CC(N)=O)C(=O)N[C@@H]([C@@H](C)O)C(=O)N[C@@H](C)C(=O)N[C@@H]([C@@H](C)O)C(=O)N1)[C@@H](C)O)C(=O)N1CCC[C@H]1C(=O)N[C@@H](CO)C(=O)N[C@@H](CO)C(=O)N[C@H](C(=O)N1CCC[C@H]1C(=O)N[C@H](C(=O)NCC(=O)N[C@@H](CO)C(=O)N[C@@H](CC(N)=O)C(=O)N[C@H](C(=O)N[C@@H](Cc1ccc(O)cc1)C(N)=O)[C@@H](C)O)C(C)C)[C@@H](C)O, also called compound 73) | 51.7 | 0.00538 µM
K([γGlu-C20 diacid])CNTATCATQRLAAFLRHSSPNFGAIPSSTNVGPNTY-NH2 (disulfide 2-7; N-terminus assumed; SMILES CC[C@H](C)[C@H](NC(=O)[C@H](C)NC(=O)CNC(=O)[C@H](Cc1ccccc1)NC(=O)[C@H](CC(N)=O)NC(=O)[C@@H]1CCCN1C(=O)[C@H](CO)NC(=O)[C@H](CO)NC(=O)[C@H](Cc1c[nH]cn1)NC(=O)[C@H](CCCNC(=N)N)NC(=O)[C@H](CC(C)C)NC(=O)[C@H](Cc1ccccc1)NC(=O)[C@H](C)NC(=O)[C@H](C)NC(=O)[C@H](CC(C)C)NC(=O)[C@H](CCCNC(=N)N)NC(=O)[C@H](CCC(N)=O)NC(=O)[C@@H](NC(=O)[C@H](C)NC(=O)[C@@H]1CSSC[C@H](NC(=O)[C@@H](N)CCCCNC(=O)CC[C@H](NC(=O)CCCCCCCCCCCCCCCCCCC(=O)O)C(=O)O)C(=O)N[C@@H](CC(N)=O)C(=O)N[C@@H]([C@@H](C)O)C(=O)N[C@@H](C)C(=O)N[C@@H]([C@@H](C)O)C(=O)N1)[C@@H](C)O)C(=O)N1CCC[C@H]1C(=O)N[C@@H](CO)C(=O)N[C@@H](CO)C(=O)N[C@H](C(=O)N[C@@H](CC(N)=O)C(=O)N[C@H](C(=O)NCC(=O)N1CCC[C@H]1C(=O)N[C@@H](CC(N)=O)C(=O)N[C@H](C(=O)N[C@@H](Cc1ccc(O)cc1)C(N)=O)[C@@H](C)O)C(C)C)[C@@H](C)O, also called compound 94) | 46.3 | 0.00686 µM
